# Paper PMC3596245
# Like-named read-outs stand apart in the source and are kept apart here.
# Columns and labels:
# [1] = target: NMMIIA rod filaments (residues 1338-1960) (human) (UniProt P35579); assay: co-sedimentation
# [2] = target: NMMIIA rod filaments (residues 1338-1960) (human) (UniProt P35579); assay: co-sedimentation; remark: listed apart in the source
Kd [1] [nM],Kd [2] [nM],Substance
220,495,GST-gelsolin N-terminal half (G1-G3) (domain or fragment)
158,423,GST-gelsolin full-length (G1-G6) (from UniProt P06396 28-782) (natural protein)
212,1310,GST-gelsolin C-terminal half (G4-G6) (domain or fragment)
